Where no end group is shown, it is not given here.
B1: Ac-… (peptide)
peptide: Ac-SDAAGAMFLEAI
B2: Ac-… (peptide)
peptide: Ac-SEAAASMFLEAI
B3: Ac-TAVVIA (peptide)
peptide: Ac-TAVVIA
B4: Ac-… (peptide)
peptide: Ac-SEAAASTAVVIA
B5: Ac-… (peptide)
peptide: Ac-TDAAGATAVVIA
B6: Ac-… (peptide)
peptide: Ac-TEAAGAMFFEAIPM
B7: Ac-… (peptide)
peptide: Ac-TEAAGATAVVIA
B8: Ac-… (peptide)
peptide: Ac-TEAAGAMFLEAIVM
B9: fusion polypeptide FP-1 (protein)
chain: GRTEAAGAMFLEAIPMSGGGGSGGGGSGGGGTWQEWEQKITALLEQAQIQQEKNEYELQKLDKWASLWEWF
B10: fusion polypeptide FP-2 (protein)
chain: GRGTEAAGAMFLEAIPMSTTWMEWDKEINNYTSLIHSLIEESQNQQEKNEQELL
B11: fusion polypeptide FP-3 (protein)
chain: GKSGTEAAGAMFLEAIPMSGGGGSGGGGSGGGGTTWEAWDRAIAEYAARIEALIRAAQEQQERNEAALREL

These binders were tested against alpha1-antitrypsin, P01009 (assay: in vitro association of the serpin-finger polypeptide with alpha1-antitrypsin).
alpha1-antitrypsin, P01009, sequence (P01009 25-418 limits assumed): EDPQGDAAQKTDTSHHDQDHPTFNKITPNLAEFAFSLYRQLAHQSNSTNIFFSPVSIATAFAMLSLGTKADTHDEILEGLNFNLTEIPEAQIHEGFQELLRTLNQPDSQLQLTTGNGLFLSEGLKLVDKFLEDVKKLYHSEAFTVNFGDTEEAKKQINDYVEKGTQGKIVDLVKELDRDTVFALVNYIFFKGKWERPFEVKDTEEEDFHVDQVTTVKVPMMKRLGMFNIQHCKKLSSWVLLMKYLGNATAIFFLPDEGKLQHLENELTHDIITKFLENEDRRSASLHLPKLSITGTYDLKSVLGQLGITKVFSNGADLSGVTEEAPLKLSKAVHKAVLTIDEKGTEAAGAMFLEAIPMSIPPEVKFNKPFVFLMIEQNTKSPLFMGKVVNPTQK

Point of comparison: B3, in vitro association T1/2 16 h. Against it:
- B1 — the same, 16 h
- B2 — 4-fold lower, 4 h
- B4 — 11-fold lower, 1.4 h
- B5 — the same, 16 h
- B6 — 1.6-fold lower, 10 h
- B7 — 1.7-fold lower, 9.5 h
- B8 — 1.6-fold lower, 10 h

Each binder was assayed against HIV HR1 peptide (heptad repeat 1) (HIV) (assay: SPR (BIAcore), HIV HR1 peptide immobilized on CM5 chip).

Point of comparison: B9, Ka 6.29e+08 M⁻¹. Against it:
- B10 — 17-fold higher, 1.08e+10 M⁻¹
- B11 — 51-fold higher, 3.22e+10 M⁻¹

Point of comparison: B9, Kd 1.59 nM. Against it:
- B10 — 17-fold lower, 0.0924 nM
- B11 — 51-fold lower, 0.031 nM

Point of comparison: B9, koff 0.000361 s⁻¹. Against it:
- B10 — 3-fold lower, 0.000119 s⁻¹
- B11 — 12-fold lower, 3.07e-05 s⁻¹

Point of comparison: B11, kon 991000 M⁻¹ s⁻¹. Against it:
- B9 — 4.4-fold lower, 227000 M⁻¹ s⁻¹
- B10 — within 1.5-fold, 1.29e+06 M⁻¹ s⁻¹

From patent US20140045742A1
